Where a chain is given by its changes, count along the chain named. In names and notes the source's numbering stands.
B1: D2D3M3M4 (L205K) (protein)
chain: CEVPTRLNSASLKQPYITQNYFPVGTVVEYECRPGYRREPSLSPKLTCLQNLKWSTAVEFCKKKSCPNPGEIRNGQIDVPGGILFGATISFSCNTGYKLFGSTSSFCKISGSSVQWSDPLPECREIYCTPPPKIKNGKHTFSEVEVFEYLDAVTYSCDPAPGPDPFSLIGESTIYCGDNSVWSRAAPECKVVKCRFPVVENGKQISGFGKKFYYKATVMFECDKGFYLDGSDTIVCDSNSTWDPPVPKCLKVL
B2: D2D3M3M4 (F197I) (protein)
chain: B1 chain with F100I, K108L
B3: D2D3M3M4 (T192E) (protein)
chain: B1 chain with T95E, K108L
B4: D2D3M3M4 (S199K) (protein)
chain: B1 chain with S102K, K108L
B5: D2D3M3M4 (Multi-5) or DCP (decay-cofactor protein) (protein)
chain: B1 chain with F100I, K108L, P119K, E122I, R124E, E125K, I126V, Y127L
B6: D2D3M3M4 (P216K) (protein)
chain: B1 chain with K108L, P119K
B7: D2D3M3M4 (T200Y) (protein)
chain: B1 chain with T103Y, K108L
B8: D2D3M3M4 (K195Y) (protein)
chain: B1 chain with K98Y, K108L
B9: D2D3M3M4 (Multi-1) (protein)
chain: B1 chain with K108L, E122I, R124E, E125K, I126V, Y127L
B10: D2M2-4 (Tetra) (protein)
chain: CEVPTRLNSASLKQPYITQNYFPVGTVVEYECRPGYRRQPSLSPKLTCLQNLKWSTAVEFCKKKSCPNIRDPLNGQAVPANGTYEFGYQMHFICNEGYYLAGEEILYCELKGSVAIWSGKPPICEKVKCTPPPKIKNGKHTFSEVEVFEYLDAVTYSCDPAPGPDPFSLIGESTIYCGDNSVWSRAAPECKVVKCRFPVVENGKQISGFGKKFYYKATVMFECDKGFYLDGSDTIVCDSNSTWDPPVPKCLKVL

Substrate: CP C3-convertase (C4b2a) (UniProt P0C0L4)
Sequence (P0C0L4 757-1446 limits assumed, chain 1 of 4): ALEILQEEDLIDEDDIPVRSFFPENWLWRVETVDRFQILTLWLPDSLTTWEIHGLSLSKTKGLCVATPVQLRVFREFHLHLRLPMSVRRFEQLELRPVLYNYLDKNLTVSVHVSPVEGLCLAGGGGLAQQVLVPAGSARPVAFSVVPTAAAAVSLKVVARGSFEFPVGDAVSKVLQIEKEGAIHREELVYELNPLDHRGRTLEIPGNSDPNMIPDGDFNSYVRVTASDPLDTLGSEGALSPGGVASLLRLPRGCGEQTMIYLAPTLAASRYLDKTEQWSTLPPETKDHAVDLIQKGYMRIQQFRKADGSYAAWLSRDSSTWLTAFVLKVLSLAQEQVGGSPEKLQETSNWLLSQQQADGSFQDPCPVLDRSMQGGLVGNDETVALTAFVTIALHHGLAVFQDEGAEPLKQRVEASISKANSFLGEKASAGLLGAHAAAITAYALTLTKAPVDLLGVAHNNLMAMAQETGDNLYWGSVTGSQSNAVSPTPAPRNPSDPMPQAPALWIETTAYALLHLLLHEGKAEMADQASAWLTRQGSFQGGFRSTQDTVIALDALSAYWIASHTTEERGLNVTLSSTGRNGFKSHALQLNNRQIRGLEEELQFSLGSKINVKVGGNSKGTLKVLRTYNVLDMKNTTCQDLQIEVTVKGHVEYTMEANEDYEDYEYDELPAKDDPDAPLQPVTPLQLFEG
Sequence (P0C0L4 20-675 limits assumed, chain 2 of 4): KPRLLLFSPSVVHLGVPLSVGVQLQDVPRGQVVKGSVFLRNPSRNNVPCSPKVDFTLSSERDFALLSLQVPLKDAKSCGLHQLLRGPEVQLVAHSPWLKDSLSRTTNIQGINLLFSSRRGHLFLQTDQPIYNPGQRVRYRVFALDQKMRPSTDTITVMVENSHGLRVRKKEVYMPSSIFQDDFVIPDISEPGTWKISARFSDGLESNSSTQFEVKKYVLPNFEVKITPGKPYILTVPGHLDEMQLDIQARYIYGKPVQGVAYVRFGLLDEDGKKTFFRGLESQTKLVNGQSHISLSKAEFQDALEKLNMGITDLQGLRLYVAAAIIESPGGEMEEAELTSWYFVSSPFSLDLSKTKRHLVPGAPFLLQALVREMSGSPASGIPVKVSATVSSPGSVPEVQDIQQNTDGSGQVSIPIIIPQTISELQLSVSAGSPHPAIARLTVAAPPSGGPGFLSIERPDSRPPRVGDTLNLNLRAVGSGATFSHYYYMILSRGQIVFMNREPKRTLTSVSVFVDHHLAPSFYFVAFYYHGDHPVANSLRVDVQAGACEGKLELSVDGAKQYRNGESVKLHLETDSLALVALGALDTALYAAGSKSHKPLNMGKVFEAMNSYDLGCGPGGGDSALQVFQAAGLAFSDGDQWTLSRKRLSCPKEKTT
Sequence (P0C0L4 1454-1744 limits assumed, chain 3 of 4): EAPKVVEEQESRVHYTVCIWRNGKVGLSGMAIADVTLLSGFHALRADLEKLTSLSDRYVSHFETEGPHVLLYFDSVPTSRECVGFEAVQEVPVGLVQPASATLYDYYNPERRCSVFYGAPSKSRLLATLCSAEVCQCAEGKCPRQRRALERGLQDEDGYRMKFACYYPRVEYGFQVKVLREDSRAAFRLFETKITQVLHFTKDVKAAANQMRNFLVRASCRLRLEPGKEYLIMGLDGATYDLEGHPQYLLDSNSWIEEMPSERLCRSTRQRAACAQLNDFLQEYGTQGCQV
Sequence (P06681 244-752 limits assumed, chain 4 of 4, further chain): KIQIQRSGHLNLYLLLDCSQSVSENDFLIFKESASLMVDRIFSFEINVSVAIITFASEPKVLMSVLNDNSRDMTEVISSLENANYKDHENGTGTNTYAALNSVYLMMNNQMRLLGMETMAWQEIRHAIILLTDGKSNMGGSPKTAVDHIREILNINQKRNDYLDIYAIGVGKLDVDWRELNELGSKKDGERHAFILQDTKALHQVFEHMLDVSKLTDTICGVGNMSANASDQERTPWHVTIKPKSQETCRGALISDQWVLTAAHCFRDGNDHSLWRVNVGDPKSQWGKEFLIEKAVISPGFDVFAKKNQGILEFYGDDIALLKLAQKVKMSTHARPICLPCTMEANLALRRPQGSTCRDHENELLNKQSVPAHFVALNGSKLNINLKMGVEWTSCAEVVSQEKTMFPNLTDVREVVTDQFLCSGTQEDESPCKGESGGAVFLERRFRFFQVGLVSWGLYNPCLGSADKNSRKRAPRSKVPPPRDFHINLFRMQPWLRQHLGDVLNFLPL
Assay: cell-based or functional assay

CP-DAA IC50 [µM] | Relative CP-DAA | Binder
9.2 | 1.7 | B1
30.7 | 0.5 | B2
15.5 | 1 | B3
23.7 | 0.7 | B4
12.7 | 1.3 | B5
21 | 0.75 | B6
17.7 | 0.9 | B7
> 100 | 6.2 | B8
22.6 | 0.7 | B9

Molecular target: C4b (UniProt P0C0L4)
Sequence (P0C0L4 757-1446 limits assumed, chain 1 of 3): as the sequence (P0C0L4 757-1446 limits assumed, chain 1 of 4) above
Sequence (P0C0L4 20-675 limits assumed, chain 2 of 3): as the sequence (P0C0L4 20-675 limits assumed, chain 2 of 4) above
Sequence (P0C0L4 1454-1744 limits assumed, chain 3 of 3): as the sequence (P0C0L4 1454-1744 limits assumed, chain 3 of 4) above
Assay: cell-based or functional assay

C4b CFA: Time (min.) for 50% cleavage of C4B α′-chain [min] | Relative C4b CFA | Binder
433 | 1.07 | B1
96.7 | 7 | B2
268 | 8.7 | B3
181 | 2.5 | B4
3.1 | 3 | B5
93.3 | 5 | B6
513 | 0.9 | B7
> 540 | < 0.85 | B8
493 | 1.07 | B9

Molecular target: AP C3-convertase (C3bBb) (UniProt P01024)
Sequence (P01024 23-667 limits assumed, chain 1 of 3): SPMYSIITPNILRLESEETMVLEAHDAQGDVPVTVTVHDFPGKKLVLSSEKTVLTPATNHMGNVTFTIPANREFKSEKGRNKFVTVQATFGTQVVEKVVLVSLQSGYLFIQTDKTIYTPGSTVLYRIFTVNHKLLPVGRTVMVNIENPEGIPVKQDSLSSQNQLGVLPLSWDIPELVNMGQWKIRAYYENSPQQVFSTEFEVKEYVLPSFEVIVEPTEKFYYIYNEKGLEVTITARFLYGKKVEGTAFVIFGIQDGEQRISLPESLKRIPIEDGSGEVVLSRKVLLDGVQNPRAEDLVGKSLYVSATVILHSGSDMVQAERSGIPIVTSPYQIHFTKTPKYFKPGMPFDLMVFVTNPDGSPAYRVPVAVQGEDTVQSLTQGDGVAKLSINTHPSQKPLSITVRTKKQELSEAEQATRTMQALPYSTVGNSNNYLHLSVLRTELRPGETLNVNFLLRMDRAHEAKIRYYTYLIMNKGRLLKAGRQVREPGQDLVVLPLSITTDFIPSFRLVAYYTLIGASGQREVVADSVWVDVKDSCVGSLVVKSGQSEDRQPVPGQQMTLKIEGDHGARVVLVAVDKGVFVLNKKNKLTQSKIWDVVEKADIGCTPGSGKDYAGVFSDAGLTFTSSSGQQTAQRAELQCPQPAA
Sequence (P01024 749-1663 limits assumed, chain 2 of 3): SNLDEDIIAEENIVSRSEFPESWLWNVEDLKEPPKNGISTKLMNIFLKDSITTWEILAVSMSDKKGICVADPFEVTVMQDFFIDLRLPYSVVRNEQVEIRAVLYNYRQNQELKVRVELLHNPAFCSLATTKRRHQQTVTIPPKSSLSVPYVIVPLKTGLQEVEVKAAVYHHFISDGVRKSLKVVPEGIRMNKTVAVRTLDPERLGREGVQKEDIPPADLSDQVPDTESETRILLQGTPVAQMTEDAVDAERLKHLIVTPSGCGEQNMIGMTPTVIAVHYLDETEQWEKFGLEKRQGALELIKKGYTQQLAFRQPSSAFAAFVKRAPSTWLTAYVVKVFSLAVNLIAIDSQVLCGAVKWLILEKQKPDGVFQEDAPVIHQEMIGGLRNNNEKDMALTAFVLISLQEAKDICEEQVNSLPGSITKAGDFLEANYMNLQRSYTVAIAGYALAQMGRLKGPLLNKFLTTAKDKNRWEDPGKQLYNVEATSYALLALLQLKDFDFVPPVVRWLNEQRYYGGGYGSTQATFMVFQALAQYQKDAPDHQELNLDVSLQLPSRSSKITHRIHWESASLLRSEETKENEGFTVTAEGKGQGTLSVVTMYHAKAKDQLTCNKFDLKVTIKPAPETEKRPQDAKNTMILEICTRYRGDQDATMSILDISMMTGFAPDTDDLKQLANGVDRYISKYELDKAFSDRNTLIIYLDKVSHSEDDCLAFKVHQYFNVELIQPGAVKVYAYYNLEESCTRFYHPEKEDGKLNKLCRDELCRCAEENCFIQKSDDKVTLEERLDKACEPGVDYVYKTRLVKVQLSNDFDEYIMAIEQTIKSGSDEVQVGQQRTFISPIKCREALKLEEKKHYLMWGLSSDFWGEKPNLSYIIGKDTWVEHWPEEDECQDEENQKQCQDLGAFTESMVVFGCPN
Sequence (P00751 260-764 limits assumed, chain 3 of 3, further chain): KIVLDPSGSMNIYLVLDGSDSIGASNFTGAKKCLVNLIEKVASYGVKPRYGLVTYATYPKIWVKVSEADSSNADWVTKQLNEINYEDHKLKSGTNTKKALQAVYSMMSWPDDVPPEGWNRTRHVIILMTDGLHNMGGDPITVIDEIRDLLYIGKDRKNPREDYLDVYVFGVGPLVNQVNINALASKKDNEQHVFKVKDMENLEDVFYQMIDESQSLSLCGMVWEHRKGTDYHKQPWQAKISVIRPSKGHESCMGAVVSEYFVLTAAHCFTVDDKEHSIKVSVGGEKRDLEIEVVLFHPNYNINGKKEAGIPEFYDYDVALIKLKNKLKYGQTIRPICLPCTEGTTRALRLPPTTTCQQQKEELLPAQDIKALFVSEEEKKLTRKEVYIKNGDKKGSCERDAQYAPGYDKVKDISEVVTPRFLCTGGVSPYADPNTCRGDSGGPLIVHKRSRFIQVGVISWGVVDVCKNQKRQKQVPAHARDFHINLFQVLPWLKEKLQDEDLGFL
Assay: cell-based or functional assay

AP-DAA IC50 [µM] | Relative AP-DAA | AP-DAA, fold increase compared to D2M2-4 [fold] | AP-DAA, fold less compared to DAF [fold] | Binder
> 0.01 | 0.2 |  |  | B1
0.0044 | 0.3 |  |  | B2
0.0025 | 0.9 |  |  | B3
0.0065 | 0.3 |  |  | B4
0.0024 | 1.3 |  |  | B5
0.0034 | 0.6 |  |  | B6
0.0037 | 0.56 |  |  | B7
> 0.01 | 0.2 |  |  | B8
0.0019 | 1.1 |  |  | B9
 |  | 12.5 | 138 | B10

Molecular target: C3b (UniProt P01024)
Sequence (P01024 23-667 limits assumed, chain 1 of 2): as the sequence (P01024 23-667 limits assumed, chain 1 of 3) above
Sequence (P01024 749-1663 limits assumed, chain 2 of 2): as the sequence (P01024 749-1663 limits assumed, chain 2 of 3) above
Assay: cell-based or functional assay

C3b CFA: Time (min.) for 50% cleavage of C3B α′-chain [min] | Relative C3b CFA | Binder
104 | 0.8 | B1
49.8 | 1.7 | B2
74.3 | 1.1 | B3
18.9 | 4.4 | B4
3.3 | 1.5 | B5
30.1 | 2.7 | B6
103 | 0.8 | B7
27.3 | 3 | B9

— patent US20220195012A1
